Experimental data: the supplement of paper PMC10065799, “High-throughput profiling of sequence recognition by tyrosine kinases and SH2 domains using bacterial peptide display” (eLife, 2023)

Assays:
Fyn = Fyn (UniProt P06241); assay: phosphorylation enrichment, bacterial display (enrichment ratio); higher = better substrate or ligand; peptides without Tyr show the background
FGFR1 = FGFR1 (UniProt P11362); assay: as above
Fer (mouse) = assay: as above
c-Abl (mouse) = assay: as above
EPHB1 = EPHB1 (UniProt P54762); assay: as above
EPHB2 = EPHB2 (UniProt P29323); assay: as above
Hck = Hck (UniProt P08631); assay: as above
MERTK = MERTK (UniProt Q12866); assay: as above
Jak2 = Jak2 (UniProt O60674); assay: as above
Fes = Fes (UniProt P07332); assay: as above
c-Src = assay: as above
AncSZ = assay: as above
FGFR3 = FGFR3 (UniProt P22607); assay: as above
c-Src SH2 = assay: SH2 binding enrichment of the phosphorylated peptide, bacterial display (enrichment ratio); higher = better substrate or ligand; peptides without Tyr show the background
SHP2-C SH2 = assay: as above
Grb2 SH2 = Grb2 SH2 (UniProt P62993); assay: as above
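Throughout, for SH2 binding enrichment of the phosphorylated peptide, bacterial display: peptide library displayed on the E. coli surface as eCPX fusions, selected cells deep-sequenced, score is each peptide's frequency after selection divided by its frequency in the input.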
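Throughout, for phosphorylation enrichment, bacterial display: 11-residue human phosphosite peptides and single-mutation variants displayed on the E. coli surface, counted by deep sequencing, each peptide's frequency after selection divided by its frequency in the unselected input library; frequency after pTyr selection over input frequency; kinase dosed for 20-30% of maximal phosphorylation in three min.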

Sequence of FGFR1 (P11362 whole entry, looked up): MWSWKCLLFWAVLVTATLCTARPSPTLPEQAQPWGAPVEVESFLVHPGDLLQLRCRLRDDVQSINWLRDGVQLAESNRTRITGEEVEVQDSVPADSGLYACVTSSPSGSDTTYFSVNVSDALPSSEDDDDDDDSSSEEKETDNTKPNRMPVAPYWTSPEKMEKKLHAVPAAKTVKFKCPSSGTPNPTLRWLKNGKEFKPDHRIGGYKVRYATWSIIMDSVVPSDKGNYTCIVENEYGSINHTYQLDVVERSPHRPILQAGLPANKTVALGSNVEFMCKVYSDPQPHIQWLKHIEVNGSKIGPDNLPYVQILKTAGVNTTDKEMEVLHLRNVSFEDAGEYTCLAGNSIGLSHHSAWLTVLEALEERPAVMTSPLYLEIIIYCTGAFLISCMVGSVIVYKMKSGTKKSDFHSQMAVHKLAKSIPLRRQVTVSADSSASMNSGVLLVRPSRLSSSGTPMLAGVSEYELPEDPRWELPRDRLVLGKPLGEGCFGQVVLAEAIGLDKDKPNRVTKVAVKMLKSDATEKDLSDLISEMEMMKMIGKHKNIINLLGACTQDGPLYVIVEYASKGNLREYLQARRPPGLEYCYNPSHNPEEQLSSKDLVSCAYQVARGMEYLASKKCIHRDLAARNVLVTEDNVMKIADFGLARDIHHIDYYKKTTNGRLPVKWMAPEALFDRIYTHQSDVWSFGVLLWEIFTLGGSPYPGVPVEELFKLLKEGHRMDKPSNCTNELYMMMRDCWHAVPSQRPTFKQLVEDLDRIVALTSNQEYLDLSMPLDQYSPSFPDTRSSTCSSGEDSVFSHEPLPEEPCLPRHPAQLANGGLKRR
Sequence of EPHB2 (P29323 whole entry, looked up): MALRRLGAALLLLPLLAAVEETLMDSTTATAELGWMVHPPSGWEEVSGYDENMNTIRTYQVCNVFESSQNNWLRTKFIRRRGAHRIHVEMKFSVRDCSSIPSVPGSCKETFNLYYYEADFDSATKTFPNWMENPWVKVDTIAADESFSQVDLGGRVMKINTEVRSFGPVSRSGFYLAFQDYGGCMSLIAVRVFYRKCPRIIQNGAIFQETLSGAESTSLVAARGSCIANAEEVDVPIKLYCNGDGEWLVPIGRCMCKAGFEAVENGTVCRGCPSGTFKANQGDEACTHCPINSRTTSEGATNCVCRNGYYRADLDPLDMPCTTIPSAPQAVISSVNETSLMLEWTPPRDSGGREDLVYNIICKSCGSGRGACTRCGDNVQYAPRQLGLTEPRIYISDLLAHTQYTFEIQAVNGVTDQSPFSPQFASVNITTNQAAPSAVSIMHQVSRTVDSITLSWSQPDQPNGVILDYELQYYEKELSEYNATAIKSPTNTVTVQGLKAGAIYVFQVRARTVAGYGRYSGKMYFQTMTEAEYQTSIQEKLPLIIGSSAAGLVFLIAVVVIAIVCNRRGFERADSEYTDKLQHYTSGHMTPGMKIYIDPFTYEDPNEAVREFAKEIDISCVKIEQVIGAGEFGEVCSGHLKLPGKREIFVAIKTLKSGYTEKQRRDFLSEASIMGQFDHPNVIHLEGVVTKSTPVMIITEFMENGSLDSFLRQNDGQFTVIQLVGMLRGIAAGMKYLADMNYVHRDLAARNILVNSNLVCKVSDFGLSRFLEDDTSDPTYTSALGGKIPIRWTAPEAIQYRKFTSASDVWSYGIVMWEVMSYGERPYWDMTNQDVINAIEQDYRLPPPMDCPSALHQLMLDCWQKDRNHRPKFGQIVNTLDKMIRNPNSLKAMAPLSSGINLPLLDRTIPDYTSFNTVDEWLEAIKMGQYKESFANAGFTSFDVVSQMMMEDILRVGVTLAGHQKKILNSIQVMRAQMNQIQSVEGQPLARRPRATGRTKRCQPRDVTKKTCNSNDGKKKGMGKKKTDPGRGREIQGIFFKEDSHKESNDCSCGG
Sequence of FGFR3 (P22607 whole entry, looked up): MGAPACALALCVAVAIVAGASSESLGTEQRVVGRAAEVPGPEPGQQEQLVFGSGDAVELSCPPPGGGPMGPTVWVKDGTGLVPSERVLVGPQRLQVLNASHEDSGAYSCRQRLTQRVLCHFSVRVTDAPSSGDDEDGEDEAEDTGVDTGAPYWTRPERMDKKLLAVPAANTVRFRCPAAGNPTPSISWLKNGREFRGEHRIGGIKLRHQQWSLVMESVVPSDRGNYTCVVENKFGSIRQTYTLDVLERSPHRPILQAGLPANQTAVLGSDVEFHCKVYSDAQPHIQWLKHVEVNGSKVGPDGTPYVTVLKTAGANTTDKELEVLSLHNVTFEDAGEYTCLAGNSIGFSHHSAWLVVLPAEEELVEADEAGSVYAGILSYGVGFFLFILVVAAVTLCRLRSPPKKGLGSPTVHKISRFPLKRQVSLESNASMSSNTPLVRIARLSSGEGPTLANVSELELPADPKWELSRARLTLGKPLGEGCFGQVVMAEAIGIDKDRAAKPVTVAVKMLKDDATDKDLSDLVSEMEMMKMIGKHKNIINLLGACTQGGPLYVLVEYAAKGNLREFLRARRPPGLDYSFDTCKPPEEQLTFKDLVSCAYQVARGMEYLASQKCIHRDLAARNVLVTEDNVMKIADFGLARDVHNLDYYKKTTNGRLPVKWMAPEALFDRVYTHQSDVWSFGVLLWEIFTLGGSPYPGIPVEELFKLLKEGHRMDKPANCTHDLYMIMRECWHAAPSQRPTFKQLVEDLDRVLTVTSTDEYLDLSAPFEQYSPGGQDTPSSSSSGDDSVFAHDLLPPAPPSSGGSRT
Sequence of Hck (P08631 whole entry, looked up): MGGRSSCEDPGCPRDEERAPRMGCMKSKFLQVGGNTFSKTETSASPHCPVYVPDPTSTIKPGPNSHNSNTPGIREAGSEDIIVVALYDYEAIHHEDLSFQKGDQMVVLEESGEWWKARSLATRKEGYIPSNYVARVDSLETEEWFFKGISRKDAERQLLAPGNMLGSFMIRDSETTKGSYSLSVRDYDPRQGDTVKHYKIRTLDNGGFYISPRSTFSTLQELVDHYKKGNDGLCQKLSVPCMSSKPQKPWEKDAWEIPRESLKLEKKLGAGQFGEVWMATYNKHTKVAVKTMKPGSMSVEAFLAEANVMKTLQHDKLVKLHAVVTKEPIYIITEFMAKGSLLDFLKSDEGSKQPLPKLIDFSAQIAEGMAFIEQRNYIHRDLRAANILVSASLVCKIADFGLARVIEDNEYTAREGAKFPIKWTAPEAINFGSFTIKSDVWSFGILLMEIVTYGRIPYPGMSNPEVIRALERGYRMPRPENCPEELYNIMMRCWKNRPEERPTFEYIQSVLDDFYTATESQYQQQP
Sequence of Fyn (P06241 whole entry, looked up): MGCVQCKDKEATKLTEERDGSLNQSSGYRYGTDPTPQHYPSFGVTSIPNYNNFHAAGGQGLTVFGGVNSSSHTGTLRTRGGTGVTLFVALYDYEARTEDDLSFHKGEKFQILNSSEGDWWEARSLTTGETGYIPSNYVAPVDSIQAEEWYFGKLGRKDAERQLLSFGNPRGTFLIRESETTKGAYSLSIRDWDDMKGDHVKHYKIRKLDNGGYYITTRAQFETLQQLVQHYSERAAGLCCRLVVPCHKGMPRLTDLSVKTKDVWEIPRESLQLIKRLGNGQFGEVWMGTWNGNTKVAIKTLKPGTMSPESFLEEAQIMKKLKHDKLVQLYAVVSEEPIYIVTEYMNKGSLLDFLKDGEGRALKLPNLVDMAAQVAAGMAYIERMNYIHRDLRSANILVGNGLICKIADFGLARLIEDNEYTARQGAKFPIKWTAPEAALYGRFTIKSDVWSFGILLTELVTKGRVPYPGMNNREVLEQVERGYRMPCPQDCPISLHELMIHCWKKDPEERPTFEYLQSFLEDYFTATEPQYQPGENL
Sequence of EPHB1 (P54762 whole entry, looked up): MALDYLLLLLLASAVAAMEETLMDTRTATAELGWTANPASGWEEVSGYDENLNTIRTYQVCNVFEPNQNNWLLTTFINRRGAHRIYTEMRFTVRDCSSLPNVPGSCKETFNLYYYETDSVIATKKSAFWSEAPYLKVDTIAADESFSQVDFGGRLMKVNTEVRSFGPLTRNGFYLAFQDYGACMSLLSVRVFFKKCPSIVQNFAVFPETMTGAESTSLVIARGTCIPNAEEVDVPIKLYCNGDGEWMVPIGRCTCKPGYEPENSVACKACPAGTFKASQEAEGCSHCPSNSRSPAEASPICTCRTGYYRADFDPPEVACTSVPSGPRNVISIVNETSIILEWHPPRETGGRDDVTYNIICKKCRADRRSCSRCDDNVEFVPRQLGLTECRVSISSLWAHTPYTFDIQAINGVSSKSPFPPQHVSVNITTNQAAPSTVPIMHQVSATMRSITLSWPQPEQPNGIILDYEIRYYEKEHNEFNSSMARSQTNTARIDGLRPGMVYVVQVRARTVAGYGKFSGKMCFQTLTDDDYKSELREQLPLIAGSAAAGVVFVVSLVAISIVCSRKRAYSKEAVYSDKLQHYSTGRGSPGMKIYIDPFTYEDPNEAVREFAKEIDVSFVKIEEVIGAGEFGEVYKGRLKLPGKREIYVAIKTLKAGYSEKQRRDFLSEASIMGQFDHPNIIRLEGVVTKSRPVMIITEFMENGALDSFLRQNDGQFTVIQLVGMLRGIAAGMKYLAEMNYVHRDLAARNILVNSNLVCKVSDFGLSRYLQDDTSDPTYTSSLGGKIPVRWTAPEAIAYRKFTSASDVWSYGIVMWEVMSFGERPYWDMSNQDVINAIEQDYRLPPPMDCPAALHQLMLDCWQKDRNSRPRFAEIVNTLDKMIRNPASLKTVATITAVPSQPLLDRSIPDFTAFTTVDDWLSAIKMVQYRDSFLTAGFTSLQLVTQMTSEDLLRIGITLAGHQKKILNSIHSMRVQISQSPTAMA
Sequence of Grb2 SH2 (P62993 whole entry, looked up, the tested form may be a part): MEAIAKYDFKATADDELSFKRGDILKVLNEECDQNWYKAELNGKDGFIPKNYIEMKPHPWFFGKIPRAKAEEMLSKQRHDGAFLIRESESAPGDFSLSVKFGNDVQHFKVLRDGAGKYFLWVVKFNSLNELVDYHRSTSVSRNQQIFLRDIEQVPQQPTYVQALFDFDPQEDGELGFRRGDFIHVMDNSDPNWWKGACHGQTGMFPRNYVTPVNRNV

Sequence	phosphorylation enrichment (Fyn)	phosphorylation enrichment (FGFR1)	phosphorylation enrichment (Fer (mouse))	phosphorylation enrichment (c-Abl (mouse))	phosphorylation enrichment (EPHB1)	phosphorylation enrichment (EPHB2)	phosphorylation enrichment (Hck)	phosphorylation enrichment (MERTK)	phosphorylation enrichment (Jak2)	phosphorylation enrichment (Fes)	phosphorylation enrichment (c-Src)	phosphorylation enrichment (AncSZ)	phosphorylation enrichment (FGFR3)	SH2 binding enrichment (c-Src SH2)	SH2 binding enrichment (SHP2-C SH2)	SH2 binding enrichment (Grb2 SH2)
LNPLFYSLRNK [OR5R1_Y290_I289F]	0.511	0.481	0.75	0.363	0.396	0.537	0.475	0.395	0.468	0.773	0.348	0.552	0.737	0.74	2.19	1.5
LPKEQYLYTKE [AFG3L2_Y614]	0.634	0.789	0.75	1.48	0.895	0.574	0.767	0.792	1.41	1.42	0.913	1.3	0.998	0.597	0.643	0.75
LPPGEYVVVPS [CAPN1_Y494]	0.88	2.83	0.778	1.31	5.23	3.72	0.67	0.927	1.32	1.45	0.641	1.7	1.93	0.789	0.795	1.06
LQLLGDRPVFS [CHST6_Y358_Y358D_YF]	0.356	0.448	0.378	0.673	0.521	0.487	0.41	0.388	0.633	0.795	0.377	0.628	0.542	0.532	0.762	0.749
LREKVYASLEA [RXRA_Y397]	6.2	0.84	0.892	5.68	0.823	0.862	2.9	2.22	1.21	1.9	6.94	1.63	0.944	0.75	1.28	0.665
LRIAVYHEILI [CREBBP_Y1450_T1447I]	3.37	5.94	2.45	2.93	5.55	3.56	2.74	1.62	4.19	4.93	2.29	5.75	6.95	0.954	0.798	1.1
LRNRVYEVPVE [SLC26A3_Y756]	1.17	0.584	4.25	1.52	1.12	1.54	1.37	3.3	2.04	1.25	1.18	1.65	0.757	6.38	0.936	1.25
LSALDYKIFFF [WDPCP_Y210_YF]	0.418	0.753	0.672	0.725	0.588	0.71	0.585	0.332	0.991	1.05	0.717	1.5	0.833	0.557	1.54	0.84
LSDGPYSNSFE [EPOR_Y485_P488S_YF]	1.23	1.07	1.36	1.2	0.982	1.11	0.915	0.858	1.18	1.65	0.83	1.49	0.976	1.22	0.525	1
LSSEMCVKSFT [F5_Y2149_Y2149C_YF]	0.683	1.07	0.815	0.932	0.472	1.34	0.971	0.854	1.11	1.45	0.726	1.36	1.13	0.641	0.603	1
LSVEIHDRREY [ITGB7_Y753_Y753H]	0.336	0.414	0.473	0.823	0.55	0.54	0.463	0.336	1.12	1.08	0.438	1.09	0.633	0.429	0.473	0.733
LTQRTYMLENA [GPAA1_Y49_S51L]	0.858	0.866	0.468	0.623	0.783	0.541	0.547	0.536	0.64	1.01	0.479	0.843	0.929	0.747	1.06	0.988
LVGTPYWMAPE [PAK5_Y608]	0.683	2.09	0.573	0.694	0.775	0.437	0.459	0.856	1.14	1.15	2.71	0.91	1.84	0.673	1.58	0.76
LVQAEYWHDRI [PPT1_Y185_P189R]	0.396	3.27	0.706	0.868	0.684	0.896	0.605	0.522	1.25	1	0.603	1.16	2.08	0.685	0.511	0.699
LVVFEYMRHGD [NTRK1_Y591_M587V]	0.46	0.486	0.456	0.476	0.577	0.556	0.475	0.392	0.761	1.03	0.374	0.875	0.625	0.725	1.35	1.2
